Assay [1] has as its target target antigen of the LL2 antibody (not given). The assay is described as follows: cell surface binding assay, calculated from the ID50 values; cells not named.
For assay [2] the target is unchanged. In words: competitive binding assay, F(ab')2; from the ID50 against unmodified control F(ab')2.
For assay [3] the target is unchanged. In words: ELISA, calculated from ID50 values; coated reagent not named.
For assay [4] the target is unchanged. In words: competitive binding assay, F(ab')2; competitor and antigen not named. Further details: unit not given beside the values.

The values that follow come from patent US6090381.

As to F(ab')2 fragment of hLL2 (antibody), the Immunoreactivity (%), Cell Binding in assay [1] was 100%. Moreover, the Immunoreactivity, % of hLL2 in assay [2] came out at 100%. Moreover, the Immunoreactivity (%), ELISA in assay [3] was 100%. Also, the ID50 in assay [4] stood at 0.384.
Turning to “dextran-doxorubicin-conjugated F(ab')2 fragment of hLL2 (antibody)”, the Immunoreactivity (%), Cell Binding in assay [1] was 41.9%. Moreover, in assay [3], the Immunoreactivity (%), ELISA is 42.2%.
